Assay results published in patent US20250347705, “Epitope-Specific hCG Binding Aptamers and Applications Thereof” (Rhodes University, published 2025).

What was measured:
[1] = target: bovine serum albumin (BSA) (UniProt P02769 P02769:25-607); test: ELONA; BSA control beads, not different from No DNA
Experimental: Protein-modified magnetic beads were prepared by functionalising 1 mg of epoxy beads with either 10 μg of hCG or negative control proteins BSA or HSA (as in Example 2). Once functionalised, aliquots of the beads corresponding to 72 μg beads were added to individual wells of a 96-well plate which were pre-blocked with 3% w/v milk powder (in HMCKN-T buffer composed of 20 mM HEPES, 2 mM MgCl₂, 2 mM CaCl₂, 2 mM KCl, 150 mM NaCl, pH 7.4, supplemented with 0.002% v/v TWEEN 20.) Bead samples were prepared in triplicate.
A variation of the qPCR assay (FIG. 9) was employed using biotinylated aptamer sequences, creating a colourimetric ELONA (FIG. 10). During the colourimetric ELONA study, 5′ biotinylated full-length aptamer sequences were exposed to protein-modified beads—either hCG target or Bovine Serum Albumin (the bovine equivalent of HSA). After rinsing unbound aptamers from the beads, the colorimetric signal, proportional to the amount of biotinylated aptamer present, was generated by the addition of HRP-conjugated streptavidin and the subsequent HRP-catalysed oxidation of TMB.

[2] = target: human chorionic gonadotropin (hCG), alpha/beta heterodimer (Homo sapiens, UniProt P01215;P0DN86 P01215:25-116,P0DN86:21-165); test: EMSA; very slight band decrease; ELONA signal similar to No DNA; conditions: tags: Abcam ab126652, isolated from human urine, >=50% pure; label: 5' biotin
Chain of human chorionic gonadotropin (hCG), alpha/beta heterodimer (P01215 25-116, chain 1 of 2, other chains not shown): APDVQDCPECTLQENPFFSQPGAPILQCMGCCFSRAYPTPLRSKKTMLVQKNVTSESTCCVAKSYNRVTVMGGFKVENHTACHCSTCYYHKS

Chain of bovine serum albumin (BSA) (P02769 25-607, one chain of several): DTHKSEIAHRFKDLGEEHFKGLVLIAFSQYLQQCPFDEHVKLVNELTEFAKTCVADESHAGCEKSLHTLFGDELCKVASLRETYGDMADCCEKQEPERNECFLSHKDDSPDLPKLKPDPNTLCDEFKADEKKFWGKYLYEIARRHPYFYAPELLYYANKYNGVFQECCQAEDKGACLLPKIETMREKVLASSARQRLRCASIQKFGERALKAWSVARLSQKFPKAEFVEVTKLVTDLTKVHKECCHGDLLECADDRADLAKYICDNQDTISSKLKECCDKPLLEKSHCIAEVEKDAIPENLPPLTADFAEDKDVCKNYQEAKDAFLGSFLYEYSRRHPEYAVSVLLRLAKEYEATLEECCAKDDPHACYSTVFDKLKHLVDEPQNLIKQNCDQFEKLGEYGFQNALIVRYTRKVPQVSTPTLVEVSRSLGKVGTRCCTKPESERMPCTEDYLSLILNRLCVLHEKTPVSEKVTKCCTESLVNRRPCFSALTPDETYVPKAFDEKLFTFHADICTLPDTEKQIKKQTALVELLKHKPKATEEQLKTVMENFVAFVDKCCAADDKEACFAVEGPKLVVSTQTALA

Binder	binding result ([1]; label: 5' biotin)	binding result [2]	binding result ([1]; label: 5' biotin (3' biotin variant also used))
TGGACGAGGTATCTCGTATCATTGGCACCTAAAACTCCGT (ssDNA) [R4_1 truncated (amplification artefact control)]	no binding	no binding	–
ACCTGCTGACATTGGGTGGGTCCTGAACCATTTTTAATCA (ssDNA) [R4_64 truncated]	–	–	no binding
CAAGGATCGGCTCAACTTAATATTGGAGGGATAGTGTTGG (ssDNA) [R5_4 truncated]	no binding	–	–
CAACTATTTCAGTATTCTAGAAAGGTCAAACCTTAGGAGC (ssDNA) [R6_5 truncated]	no binding	–	–
